Assay results taken from patent EP4663654A1 (Hangzhou Sciwind Biosciences Co., Ltd., dated 2025).
Starred links: 1 amine or outer side, 2 acyl side, 3 side chain; linkers in the order of their positions; H or OH if unused. Non-standard residues stand in square brackets, D forms with d. *: point of attachment. C20 diacid = O=C(O)CCCCCCCCCCCCCCCCCCC(=O)*; γGlu = O=C(O)[C@H](CCC(=O)[*:2])N[*:1]; Hyp = O=C(O)[C@@H]1C[C@@H](O)CN1; NMeD = CN[C@@H](CC(=O)O)C(=O)O

T1: human amylin receptor (AMY3) on CHO-K1/Ga15/AMY3 amylin receptor/CRE-luc cells (human, UniProt P30988 25-474; O60896 24-148)
T1 sequence (looked up) 1: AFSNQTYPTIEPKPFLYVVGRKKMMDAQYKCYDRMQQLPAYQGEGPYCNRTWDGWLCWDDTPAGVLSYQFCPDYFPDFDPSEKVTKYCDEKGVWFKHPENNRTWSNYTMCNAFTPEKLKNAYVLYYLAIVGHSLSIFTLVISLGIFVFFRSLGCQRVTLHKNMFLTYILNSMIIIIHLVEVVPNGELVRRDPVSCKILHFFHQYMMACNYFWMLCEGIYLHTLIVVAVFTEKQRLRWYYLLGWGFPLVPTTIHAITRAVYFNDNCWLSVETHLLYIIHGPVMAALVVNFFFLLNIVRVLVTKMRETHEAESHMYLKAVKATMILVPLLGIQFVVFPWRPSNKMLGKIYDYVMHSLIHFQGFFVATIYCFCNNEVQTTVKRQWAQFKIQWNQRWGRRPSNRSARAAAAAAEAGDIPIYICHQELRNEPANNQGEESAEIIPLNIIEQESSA
T1 sequence (looked up) 2: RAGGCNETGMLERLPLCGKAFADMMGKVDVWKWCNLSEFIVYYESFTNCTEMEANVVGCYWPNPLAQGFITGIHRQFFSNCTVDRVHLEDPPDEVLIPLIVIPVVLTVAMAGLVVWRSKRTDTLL


Molecular target: T1, human amylin receptor (AMY3) on …
Assay: cell-based or functional assay

| EC50/nM, CRE-luciferase reporter in amylin receptor/CRE-luc CHO cells | Relative activity (the EC50 ratio of Cagrilintide to the compound) | Binder |
| --- | --- | --- |
| 0.08 nM | 113% | {C20 diacid-γGlu}-ASQLSTAATQRLADFLRHSSENLKPILPPTNVGSNT[Hyp]-NH2 (SMILES CC[C@H](C)[C@H](NC(=O)[C@@H]1CCCN1C(=O)[C@H](CCCCN)NC(=O)[C@H](CC(C)C)NC(=O)[C@H](CC(N)=O)NC(=O)[C@H](CCC(=O)O)NC(=O)[C@H](CO)NC(=O)[C@H](CO)NC(=O)[C@H](Cc1c[nH]cn1)NC(=O)[C@H](CCCNC(=N)N)NC(=O)[C@H](CC(C)C)NC(=O)[C@H](Cc1ccccc1)NC(=O)[C@H](CC(=O)O)NC(=O)[C@H](C)NC(=O)[C@H](CC(C)C)NC(=O)[C@H](CCCNC(=N)N)NC(=O)[C@H](CCC(N)=O)NC(=O)[C@@H](NC(=O)[C@H](C)NC(=O)[C@H](C)NC(=O)[C@@H](NC(=O)[C@H](CO)NC(=O)[C@H](CC(C)C)NC(=O)[C@H](CCC(N)=O)NC(=O)[C@H](CO)NC(=O)[C@H](C)NC(=O)CC[C@H](NC(=O)CCCCCCCCCCCCCCCCCCC(=O)O)C(=O)O)[C@@H](C)O)[C@@H](C)O)C(=O)N[C@@H](CC(C)C)C(=O)N1CCC[C@H]1C(=O)N1CCC[C@H]1C(=O)N[C@H](C(=O)N[C@@H](CC(N)=O)C(=O)N[C@H](C(=O)NCC(=O)N[C@@H](CO)C(=O)N[C@@H](CC(N)=O)C(=O)N[C@H](C(=O)N1C[C@H](O)C[C@H]1C(N)=O)[C@@H](C)O)C(C)C)[C@@H](C)O) [polypeptide derivative M47] |
| 0.06 nM | 150% | {C20 diacid-γGlu}-ASQLSTAATQRLADFLRHSSQNLKPILPPTNVGSNT[Hyp]-NH2 (SMILES CC[C@H](C)[C@H](NC(=O)[C@@H]1CCCN1C(=O)[C@H](CCCCN)NC(=O)[C@H](CC(C)C)NC(=O)[C@H](CC(N)=O)NC(=O)[C@H](CCC(N)=O)NC(=O)[C@H](CO)NC(=O)[C@H](CO)NC(=O)[C@H](Cc1c[nH]cn1)NC(=O)[C@H](CCCNC(=N)N)NC(=O)[C@H](CC(C)C)NC(=O)[C@H](Cc1ccccc1)NC(=O)[C@H](CC(=O)O)NC(=O)[C@H](C)NC(=O)[C@H](CC(C)C)NC(=O)[C@H](CCCNC(=N)N)NC(=O)[C@H](CCC(N)=O)NC(=O)[C@@H](NC(=O)[C@H](C)NC(=O)[C@H](C)NC(=O)[C@@H](NC(=O)[C@H](CO)NC(=O)[C@H](CC(C)C)NC(=O)[C@H](CCC(N)=O)NC(=O)[C@H](CO)NC(=O)[C@H](C)NC(=O)CC[C@H](NC(=O)CCCCCCCCCCCCCCCCCCC(=O)O)C(=O)O)[C@@H](C)O)[C@@H](C)O)C(=O)N[C@@H](CC(C)C)C(=O)N1CCC[C@H]1C(=O)N1CCC[C@H]1C(=O)N[C@H](C(=O)N[C@@H](CC(N)=O)C(=O)N[C@H](C(=O)NCC(=O)N[C@@H](CO)C(=O)N[C@@H](CC(N)=O)C(=O)N[C@H](C(=O)N1C[C@H](O)C[C@H]1C(N)=O)[C@@H](C)O)C(C)C)[C@@H](C)O) [polypeptide derivative M46] |
| 0.07 nM | 129% | {C20 diacid-γGlu}-ASQLSTAATQRLADFLRHSSN[NMeD]LKPILPPTNVGSNT[Hyp]-NH2 (SMILES CC[C@H](C)[C@H](NC(=O)[C@@H]1CCCN1C(=O)[C@H](CCCCN)NC(=O)[C@H](CC(C)C)NC(=O)[C@H](CC(=O)O)N(C)C(=O)[C@H](CC(N)=O)NC(=O)[C@H](CO)NC(=O)[C@H](CO)NC(=O)[C@H](Cc1c[nH]cn1)NC(=O)[C@H](CCCNC(=N)N)NC(=O)[C@H](CC(C)C)NC(=O)[C@H](Cc1ccccc1)NC(=O)[C@H](CC(=O)O)NC(=O)[C@H](C)NC(=O)[C@H](CC(C)C)NC(=O)[C@H](CCCNC(=N)N)NC(=O)[C@H](CCC(N)=O)NC(=O)[C@@H](NC(=O)[C@H](C)NC(=O)[C@H](C)NC(=O)[C@@H](NC(=O)[C@H](CO)NC(=O)[C@H](CC(C)C)NC(=O)[C@H](CCC(N)=O)NC(=O)[C@H](CO)NC(=O)[C@H](C)NC(=O)CC[C@H](NC(=O)CCCCCCCCCCCCCCCCCCC(=O)O)C(=O)O)[C@@H](C)O)[C@@H](C)O)C(=O)N[C@@H](CC(C)C)C(=O)N1CCC[C@H]1C(=O)N1CCC[C@H]1C(=O)N[C@H](C(=O)N[C@@H](CC(N)=O)C(=O)N[C@H](C(=O)NCC(=O)N[C@@H](CO)C(=O)N[C@@H](CC(N)=O)C(=O)N[C@H](C(=O)N1C[C@H](O)C[C@H]1C(N)=O)[C@@H](C)O)C(C)C)[C@@H](C)O) [polypeptide derivative M45] |

The remaining lines, values behind:

| Binder | EC50/nM, CRE-luciferase reporter in amylin receptor/CRE-luc CHO cells | Relative activity (the EC50 ratio of Cagrilintide to the compound) |
| --- | --- | --- |
| {C20 diacid-γGlu}-ASQLSTAATQRLADFLRHSSSNLKPILPPTNVGSNT[Hyp]-NH2 (SMILES CC[C@H](C)[C@H](NC(=O)[C@@H]1CCCN1C(=O)[C@H](CCCCN)NC(=O)[C@H](CC(C)C)NC(=O)[C@H](CC(N)=O)NC(=O)[C@H](CO)NC(=O)[C@H](CO)NC(=O)[C@H](CO)NC(=O)[C@H](Cc1c[nH]cn1)NC(=O)[C@H](CCCNC(=N)N)NC(=O)[C@H](CC(C)C)NC(=O)[C@H](Cc1ccccc1)NC(=O)[C@H](CC(=O)O)NC(=O)[C@H](C)NC(=O)[C@H](CC(C)C)NC(=O)[C@H](CCCNC(=N)N)NC(=O)[C@H](CCC(N)=O)NC(=O)[C@@H](NC(=O)[C@H](C)NC(=O)[C@H](C)NC(=O)[C@@H](NC(=O)[C@H](CO)NC(=O)[C@H](CC(C)C)NC(=O)[C@H](CCC(N)=O)NC(=O)[C@H](CO)NC(=O)[C@H](C)NC(=O)CC[C@H](NC(=O)CCCCCCCCCCCCCCCCCCC(=O)O)C(=O)O)[C@@H](C)O)[C@@H](C)O)C(=O)N[C@@H](CC(C)C)C(=O)N1CCC[C@H]1C(=O)N1CCC[C@H]1C(=O)N[C@H](C(=O)N[C@@H](CC(N)=O)C(=O)N[C@H](C(=O)NCC(=O)N[C@@H](CO)C(=O)N[C@@H](CC(N)=O)C(=O)N[C@H](C(=O)N1C[C@H](O)C[C@H]1C(N)=O)[C@@H](C)O)C(C)C)[C@@H](C)O) [polypeptide derivative M48] | 0.05 nM | 180% |
| {C20 diacid-γGlu}-ASQLSTAATQRLADFLRHSSANLKPILPPTNVGSNT[Hyp]-NH2 (SMILES CC[C@H](C)[C@H](NC(=O)[C@@H]1CCCN1C(=O)[C@H](CCCCN)NC(=O)[C@H](CC(C)C)NC(=O)[C@H](CC(N)=O)NC(=O)[C@H](C)NC(=O)[C@H](CO)NC(=O)[C@H](CO)NC(=O)[C@H](Cc1c[nH]cn1)NC(=O)[C@H](CCCNC(=N)N)NC(=O)[C@H](CC(C)C)NC(=O)[C@H](Cc1ccccc1)NC(=O)[C@H](CC(=O)O)NC(=O)[C@H](C)NC(=O)[C@H](CC(C)C)NC(=O)[C@H](CCCNC(=N)N)NC(=O)[C@H](CCC(N)=O)NC(=O)[C@@H](NC(=O)[C@H](C)NC(=O)[C@H](C)NC(=O)[C@@H](NC(=O)[C@H](CO)NC(=O)[C@H](CC(C)C)NC(=O)[C@H](CCC(N)=O)NC(=O)[C@H](CO)NC(=O)[C@H](C)NC(=O)CC[C@H](NC(=O)CCCCCCCCCCCCCCCCCCC(=O)O)C(=O)O)[C@@H](C)O)[C@@H](C)O)C(=O)N[C@@H](CC(C)C)C(=O)N1CCC[C@H]1C(=O)N1CCC[C@H]1C(=O)N[C@H](C(=O)N[C@@H](CC(N)=O)C(=O)N[C@H](C(=O)NCC(=O)N[C@@H](CO)C(=O)N[C@@H](CC(N)=O)C(=O)N[C@H](C(=O)N1C[C@H](O)C[C@H]1C(N)=O)[C@@H](C)O)C(C)C)[C@@H](C)O) [polypeptide derivative M50] | 0.07 nM | 186% |
| {C20 diacid-γGlu}-ASQLSTAATQRLADFLRHSSTNLKPILPPTNVGSNT[Hyp]-NH2 (SMILES CC[C@H](C)[C@H](NC(=O)[C@@H]1CCCN1C(=O)[C@H](CCCCN)NC(=O)[C@H](CC(C)C)NC(=O)[C@H](CC(N)=O)NC(=O)[C@@H](NC(=O)[C@H](CO)NC(=O)[C@H](CO)NC(=O)[C@H](Cc1c[nH]cn1)NC(=O)[C@H](CCCNC(=N)N)NC(=O)[C@H](CC(C)C)NC(=O)[C@H](Cc1ccccc1)NC(=O)[C@H](CC(=O)O)NC(=O)[C@H](C)NC(=O)[C@H](CC(C)C)NC(=O)[C@H](CCCNC(=N)N)NC(=O)[C@H](CCC(N)=O)NC(=O)[C@@H](NC(=O)[C@H](C)NC(=O)[C@H](C)NC(=O)[C@@H](NC(=O)[C@H](CO)NC(=O)[C@H](CC(C)C)NC(=O)[C@H](CCC(N)=O)NC(=O)[C@H](CO)NC(=O)[C@H](C)NC(=O)CC[C@H](NC(=O)CCCCCCCCCCCCCCCCCCC(=O)O)C(=O)O)[C@@H](C)O)[C@@H](C)O)[C@@H](C)O)C(=O)N[C@@H](CC(C)C)C(=O)N1CCC[C@H]1C(=O)N1CCC[C@H]1C(=O)N[C@H](C(=O)N[C@@H](CC(N)=O)C(=O)N[C@H](C(=O)NCC(=O)N[C@@H](CO)C(=O)N[C@@H](CC(N)=O)C(=O)N[C@H](C(=O)N1C[C@H](O)C[C@H]1C(N)=O)[C@@H](C)O)C(C)C)[C@@H](C)O) [polypeptide derivative M49] | 0.08 nM | 163% |
